Assay results: patent US20050142135A1, “Agents and methods for modulating interactions between gonadotropin hormones and receptors” (University of Kentucky Research Foundation, priority 2003, published 2005)
Blank lines part the entries; values can stand above or below the substance they belong to.

Key:
[1] = biological target: human FSH (human) (UniProt P01215); experiment: photoaffinity labeling, SDS-PAGE autoradiograph
[2] = biological target: LHR^S582A (human) (UniProt P22888); experiment: cell-based or functional assay
LHR^S582A (human), sequence (P22888 27-699, stated change not applied): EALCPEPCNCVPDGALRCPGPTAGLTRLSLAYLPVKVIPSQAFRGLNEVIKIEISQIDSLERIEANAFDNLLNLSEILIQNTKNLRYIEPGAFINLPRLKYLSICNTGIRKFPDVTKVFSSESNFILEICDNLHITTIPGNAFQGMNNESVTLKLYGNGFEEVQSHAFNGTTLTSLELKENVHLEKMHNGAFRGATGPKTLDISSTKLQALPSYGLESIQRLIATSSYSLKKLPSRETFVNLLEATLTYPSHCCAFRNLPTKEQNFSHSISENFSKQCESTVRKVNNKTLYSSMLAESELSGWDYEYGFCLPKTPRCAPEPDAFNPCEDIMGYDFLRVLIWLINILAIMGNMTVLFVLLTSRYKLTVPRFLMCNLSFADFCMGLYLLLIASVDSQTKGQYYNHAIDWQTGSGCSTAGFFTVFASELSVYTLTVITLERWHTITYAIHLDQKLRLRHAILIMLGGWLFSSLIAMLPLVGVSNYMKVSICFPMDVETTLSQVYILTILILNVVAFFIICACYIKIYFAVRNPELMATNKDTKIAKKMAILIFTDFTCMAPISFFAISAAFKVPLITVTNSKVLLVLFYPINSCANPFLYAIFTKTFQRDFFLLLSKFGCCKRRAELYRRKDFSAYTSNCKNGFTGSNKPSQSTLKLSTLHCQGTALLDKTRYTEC

[3] = biological target: LHR^V574A (human) (UniProt P22888); experiment: cell-based or functional assay
LHR^V574A (human), sequence (P22888 27-699, stated change not applied): as above

[4] = biological target: LHR^K583A (human) (UniProt P22888); experiment: 125I-hCG competition binding on HEK293 cells, Scatchard
LHR^K583A (human), sequence (P22888 27-699, stated change not applied): as above

[5] = biological target: LHR I^577A mutant (human) (UniProt P22888); experiment: 125I-hCG displacement / Scatchard; settings: ligand
LHR I^577A mutant (human), sequence (P22888 27-699, change not shown): as the sequence (P22888 27-699, stated change not applied) above

[6] = biological target: LHR K^573A mutant (human) (UniProt P22888); experiment: 125I-hCG displacement / Scatchard; settings: ligand
LHR K^573A mutant (human), sequence (P22888 27-699, change not shown): as the sequence (P22888 27-699, stated change not applied) above

[7] = biological target: LHR L^576A mutant (human) (UniProt P22888); experiment: 125I-hCG displacement / Scatchard; settings: ligand
LHR L^576A mutant (human), sequence (P22888 27-699, change not shown): as the sequence (P22888 27-699, stated change not applied) above

[8] = biological target: LHR N^581A mutant (human) (UniProt P22888); experiment: 125I-hCG displacement / Scatchard; settings: ligand
LHR N^581A mutant (human), sequence (P22888 27-699, change not shown): as the sequence (P22888 27-699, stated change not applied) above

[9] = biological target: LHR P^575A mutant (human) (UniProt P22888); experiment: 125I-hCG displacement / Scatchard; settings: ligand
LHR P^575A mutant (human), sequence (P22888 27-699, change not shown): as the sequence (P22888 27-699, stated change not applied) above

[10] = biological target: LHR T^578A mutant (human) (UniProt P22888); experiment: 125I-hCG displacement / Scatchard; settings: ligand
LHR T^578A mutant (human), sequence (P22888 27-699, change not shown): as the sequence (P22888 27-699, stated change not applied) above

[11] = biological target: LHR T^580A mutant (human) (UniProt P22888); experiment: 125I-hCG displacement / Scatchard; settings: ligand
LHR T^580A mutant (human), sequence (P22888 other isoform, or with tags, fused parts or gaps mutant): as the sequence (P22888 27-699, stated change not applied) above, with T576A counted along it

[12] = biological target: LHR V^579A mutant (human) (UniProt P22888); experiment: 125I-hCG displacement / Scatchard; settings: ligand
LHR V^579A mutant (human), sequence (P22888 27-699, stated change not applied): as the sequence (P22888 27-699, stated change not applied) above

[13] = biological target: LHR^K583A (human) (UniProt P22888); experiment: 125I-hCG displacement / Scatchard; settings: ligand
[14] = biological target: LHR^S582A (human) (UniProt P22888); experiment: 125I-hCG displacement / Scatchard; settings: ligand
[15] = biological target: LHR^V574A (human) (UniProt P22888); experiment: 125I-hCG displacement / Scatchard; settings: ligand

percent of FSH labeled [1]: > 50%
Substance: ^125I-FSHR^9-40F13Bpa (peptide)

IP1 (cpm) [2]: 15100 cpm | IP1 maximum level, mutant/wild type [2]: 1.09 | IP2 (cpm) [2]: 900 cpm | IP2 maximum level, mutant/wild type [2]: 1.29 | IP3 (cpm) [2]: 386 cpm | IP3 maximum level, mutant/wild type [2]: 1.38 | IPt (cpm) [2]: 16200 cpm | IPt maximum level, mutant/wild type [2]: 1.11 | IP1 (cpm) [3]: 2110 cpm | IP1 maximum level, mutant/wild type [3]: 0.15 | IP2 (cpm) [3]: 180 cpm | IP2 maximum level, mutant/wild type [3]: 0.25 | IP3 (cpm) [3]: 80 cpm | IP3 maximum level, mutant/wild type [3]: 0.39 | IPt (cpm) [3]: 2230 cpm | IPt maximum level, mutant/wild type [3]: 0.15 | fold improvement of binding affinity over wild type [4]: 2 fold
Substance: hCG (from UniProt P01215 25-116; P0DN86 21-165) (ligand)

Kd [5]: 0.746 nM | Kd [6]: 0.348 nM | Kd [7]: 0.43 nM | Kd [8]: 0.35 nM | Kd [9]: 0.277 nM | Kd [10]: 0.299 nM | Kd [11]: 0.623 nM | Kd [12]: 0.985 nM | Kd [13]: 0.195 nM | Kd [14]: 0.942 nM | Kd [15]: 0.24 nM
Substance: hCG (from UniProt P01215 25-116; P0DN86 21-165)
